From patent publication US20080260727A1

How the values were obtained:
[1] = molecular target: 8.3 TcR; experiment: tetramer staining, flow cytometry on CD8+ T cells of 8.3 TcR-transgenic NOD mice
[2] = molecular target: human NKG2D (human) (UniProt P26718); experiment: cell-based or functional assay
[3] = molecular target: human NKG2D (human) (UniProt P26718); experiment: flow cytometry on NKL cells, biotin mAb on ice 30 min, APC-streptavidin, before culture (0 h)
[4] = molecular target: human NKG2D (human) (UniProt P26718); experiment: flow cytometry on NKL cells, biotin mAb on ice 30 min, then 16 h at 37° C., APC-streptavidin (antibody left on the surface after culture)

Sequence of UniProt P26718 (P26718 whole entry T72A): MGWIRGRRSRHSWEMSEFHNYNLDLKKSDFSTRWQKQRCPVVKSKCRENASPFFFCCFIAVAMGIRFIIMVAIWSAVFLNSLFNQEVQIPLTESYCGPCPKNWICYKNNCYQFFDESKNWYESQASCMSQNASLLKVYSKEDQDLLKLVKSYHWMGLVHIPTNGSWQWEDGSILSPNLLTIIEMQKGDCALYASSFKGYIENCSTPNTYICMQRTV

percent of CD8+ T cells tetramer positive [1]	decrease in expression of NKG2D on the cell surface [2]	mean fluorescence intensity (arbitrary units) (arbitrary units) [3]	mean fluorescence intensity (arbitrary units) (arbitrary units) [4]	Substance
> 90%				NRP-V7/H-2K^d tetramer (from UniProt P01902 22-305) (peptide-MHC)
	67%	186	61	mouse anti-human NKG2D mAb (R&D Systems clone 149810) (antibody)
